Assay results reported in publication PMC10388305, “Synthesis and Evaluation of a Monomethyl Auristatin E—Integrin αvβ6 Binding Peptide–Drug Conjugate for Tumor Targeted Drug Delivery” (Journal of Medicinal Chemistry, 2023).
Where two headings read alike, the source gives them in different places.

Experiment: Biodistribution, BxPC-3 pancreatic xenograft tumor mouse model
Format: in vivo, mice
Conditions: female, athymic nude, iv, total radioactivity, γ-counter, mean ± SD; for tissue uptake at 4 h / tissue uptake at 24 h / tissue uptake at 48 h: i.v.
Description: All animal procedures conformed to the Animal Welfare Act and were approved by the University of California Davis Institutional Animal Care and Use Committee. All mice used for in vivo work were female athymic nude mice (6–8 weeks old) purchased from Charles River Laboratories (Wilmington, MA). For PET imaging and biodistribution studies, female athymic nude mice (6–8 weeks old) were injected subcutaneously with 3 × 10^6 DX3puro and 3 × 10^6 DX3puroβ6 cells in serum free DMEM on the right and left flank, respectively, or with 5 × 10^6 BxPC-3 cells in serum free RPMI 1640/Matrigel (1/1 v/v). Studies commenced once tumors reached a maximum diameter of ∼0.5 cm, approximately 3 weeks after inoculation. Food and water were available ad libitum. [^64Cu]PDC-1 was formulated in isotonic 0.9% saline to pH = 7.2 and administered intravenously (i.v.) via a catheter into the tail vein.
Aliquots of the formulated [^64Cu]PDC-1 in isotonic 0.9% saline (4.81–5.74 MBq, 1.7–2.1 μg, 0.26–0.31 nmol, 100 μL, pH 7.2) were injected i.v. as described above. Following the conscious uptake period, the mice were anesthetized (5% isoflurane), euthanized, and dissected (n ≥ 3/model/time point [4, 24, and 48 h]; the 48 h time point also included the imaging animals sacrificed after the PET scans). Tissues were collected, washed, weighed, and radioactivity measured in a γ-counter. Calibrated, decay-corrected radioactivity was expressed as the percentage of injected dose per gram of tissue (% ID/g). Data are reported as mean ± SD. […] For in vivo blocking studies, DOTA-2 (50 mg/kg, 205 nmol, 1.4 mg in 100 μL 0.9% saline) was injected i.v. into two animals/tumor model 10 min prior to [^64Cu]PDC-1. The animals were sacrificed after 4 h, tissues collected, washed, weighed, and radioactivity measured in a γ-counter.
Biodistribution data of [64Cu]PDC-1 in BxPC-3 tumor model.
Table S4. Biodistribution of [ 64Cu]PDC-1 in mice bearing a BxPC-3 xenograft tumor. Tissue uptake is
expressed as the mean of the percentage of injected dose per gram of tissue ± standard deviation (n = 4/
time point; n = 6 at 48 h); an = 3, bn = 5.

CC[C@H](C)[C@@H]([C@@H](CC(=O)N1CCC[C@H]1[C@H](OC)[C@@H](C)C(=O)N[C@H](C)[C@@H](O)c1ccccc1)OC)N(C)C(=O)[C@@H](NC(=O)[C@H](C(C)C)N(C)C(=O)OCc1ccc(NC(=O)[C@H](CCCNC(N)=O)NC(=O)[C@@H](NC(=O)CCOCCOCCNC(=O)CCN2C(=O)CC(SC[C@H](NC(=O)CN3CCN(CC(=O)O)CCN(CC(=O)O)CCN(CC(=O)O)CC3)C(=O)NCCOCCOCCOCCOCCOCCOCCOCCOCCOCCOCCOCCOCCOCCOCCOCCOCCOCCOCCOCCOCCOCCOCCOCCOCCOCCOCCOCCOCCC(=O)N[C@@H](CC(N)=O)C(=O)N[C@@H](C)C(=O)N[C@H](C(=O)N3CCC[C@H]3C(=O)N[C@@H](CC(N)=O)C(=O)N[C@@H](CC(C)C)C(=O)N[C@@H](CCCNC(=N)N)C(=O)NCC(=O)N[C@@H](CC(=O)O)C(=O)N[C@@H](CC(C)C)C(=O)N[C@@H](CCC(N)=O)C(=O)N[C@H](C(=O)N[C@@H](CC(C)C)C(=O)N[C@@H](C)C(=O)N[C@@H](CCC(N)=O)C(=O)N[C@@H](CCCNC(=N)N)C(=O)N[C@H](C(=O)N[C@@H](C)C(=O)N[C@@H](CCCNC(=N)N)C(=O)N[C@H](C(=O)NCCOCCOCCOCCOCCOCCOCCOCCOCCOCCOCCOCCOCCOCCOCCOCCOCCOCCOCCOCCOCCOCCOCCOCCOCCOCCOCCOCCOCCC(N)=O)[C@@H](C)O)C(C)C)C(C)C)C(C)C)C2=O)C(C)C)cc1)C(C)C (stereo partly drawn) [[^64Cu]PDC-1, metal not drawn]
tissue uptake at 4 h (BxPC-3 (αvβ6 +) tumor, 4 h p.i., n = 3, read-out: BxPC-3 (αvβ6 +) tumor uptake): 4.61 ± 1.44 %ID/g | tissue uptake at 24 h (BxPC-3 (αvβ6 +) tumor, 24 h p.i., n = 4, read-out: BxPC-3 (αvβ6 +) tumor uptake): 3.73 ± 0.44 %ID/g | tissue uptake at 48 h (BxPC-3 (αvβ6 +) tumor, 48 h p.i., n = 6, read-out: BxPC-3 (αvβ6 +) tumor uptake): 2.93 ± 0.8 %ID/g | tissue uptake at 4 h (bladder, 4 h p.i., n = 4, read-out: Bladder uptake): 2.06 ± 0.2 %ID/g | tissue uptake at 24 h (bladder, 24 h p.i., n = 4, read-out: Bladder uptake): 1.84 ± 0.45 %ID/g | tissue uptake at 48 h (bladder, 48 h p.i., n = 6, read-out: Bladder uptake): 1.28 ± 0.46 %ID/g | tissue uptake at 4 h (blood, 4 h p.i., n = 4, read-out: Blood uptake): 0.13 ± 0.02 %ID/g | tissue uptake at 24 h (blood, 24 h p.i., n = 4, read-out: Blood uptake): 0.31 ± 0.04 %ID/g | tissue uptake at 48 h (blood, 48 h p.i., n = 6, read-out: Blood uptake): 0.28 ± 0.04 %ID/g | tissue uptake at 4 h (bone, 4 h p.i., n = 4, read-out: Bone uptake): 0.36 ± 0.1 %ID/g | tissue uptake at 24 h (bone, 24 h p.i., n = 4, read-out: Bone uptake): 0.43 ± 0.03 %ID/g | tissue uptake at 48 h (bone, 48 h p.i., n = 6, read-out: Bone uptake): 0.23 ± 0.11 %ID/g | tissue uptake at 4 h (brain, 4 h p.i., n = 4, read-out: Brain uptake): 0.04 %ID/g | tissue uptake at 24 h (brain, 24 h p.i., n = 4, read-out: Brain uptake): 0.08 ± 0.01 %ID/g | tissue uptake at 48 h (brain, 48 h p.i., n = 6, read-out: Brain uptake): 0.08 ± 0.03 %ID/g | tissue uptake at 4 h (gall bladder, 4 h p.i., n = 4, read-out: Gall bladder uptake): 3.99 ± 1.49 %ID/g | tissue uptake at 24 h (gall bladder, 24 h p.i., n = 4, read-out: Gall bladder uptake): 2.88 ± 1.31 %ID/g | tissue uptake at 48 h (gall bladder, 48 h p.i., n = 6, read-out: Gall bladder uptake): 1.46 ± 1.09 %ID/g | tissue uptake at 4 h (heart, 4 h p.i., n = 4, read-out: Heart uptake): 0.79 ± 0.11 %ID/g | tissue uptake at 24 h (heart, 24 h p.i., n = 4, read-out: Heart uptake): 0.89 ± 0.13 %ID/g | tissue uptake at 48 h (heart, 48 h p.i., n = 6, read-out: Heart uptake): 0.79 ± 0.07 %ID/g | tissue uptake at 4 h (kidney, 4 h p.i., n = 4, read-out: Kidney uptake): 50.4 ± 3.08 %ID/g | tissue uptake at 24 h (kidney, 24 h p.i., n = 4, read-out: Kidney uptake): 41.6 ± 11.8 %ID/g | tissue uptake at 48 h (kidney, 48 h p.i., n = 6, read-out: Kidney uptake): 21.5 ± 7.01 %ID/g | tissue uptake at 4 h (large intestines, 4 h p.i., n = 4, read-out: Lg. Intestines uptake): 5.49 ± 0.47 %ID/g | tissue uptake at 24 h (large intestines, 24 h p.i., n = 4, read-out: Lg. Intestines uptake): 5.21 ± 0.82 %ID/g | tissue uptake at 48 h (large intestines, 48 h p.i., n = 6, read-out: Lg. Intestines uptake): 2.78 ± 1.08 %ID/g | tissue uptake at 4 h (liver, 4 h p.i., n = 4, read-out: Liver uptake): 1.51 ± 0.29 %ID/g | tissue uptake at 24 h (liver, 24 h p.i., n = 4, read-out: Liver uptake): 1.95 ± 0.33 %ID/g | tissue uptake at 48 h (liver, 48 h p.i., n = 6, read-out: Liver uptake): 1.8 ± 0.3 %ID/g | tissue uptake at 4 h (lung, 4 h p.i., n = 4, read-out: Lung uptake): 2.44 ± 0.3 %ID/g | tissue uptake at 24 h (lung, 24 h p.i., n = 4, read-out: Lung uptake): 2.3 ± 0.04 %ID/g | tissue uptake at 48 h (lung, 48 h p.i., n = 6, read-out: Lung uptake): 1.67 ± 0.42 %ID/g | tissue uptake at 4 h (muscle, 4 h p.i., n = 4, read-out: Muscle uptake): 0.8 ± 0.09 %ID/g | tissue uptake at 24 h (muscle, 24 h p.i., n = 4, read-out: Muscle uptake): 0.68 ± 0.06 %ID/g | tissue uptake at 48 h (muscle, 48 h p.i., n = 6, read-out: Muscle uptake): 0.44 ± 0.09 %ID/g | tissue uptake at 4 h (pancreas, 4 h p.i., n = 4, read-out: Pancreas uptake): 0.32 ± 0.09 %ID/g | tissue uptake at 24 h (pancreas, 24 h p.i., n = 4, read-out: Pancreas uptake): 0.46 ± 0.04 %ID/g | tissue uptake at 48 h (pancreas, 48 h p.i., n = 6, read-out: Pancreas uptake): 0.47 ± 0.06 %ID/g | tissue uptake at 4 h (skin, 4 h p.i., n = 4, read-out: Skin uptake): 1.92 ± 0.5 %ID/g | tissue uptake at 24 h (skin, 24 h p.i., n = 4, read-out: Skin uptake): 1.41 ± 0.25 %ID/g | tissue uptake at 48 h (skin, 48 h p.i., n = 6, read-out: Skin uptake): 0.79 ± 0.19 %ID/g | tissue uptake at 4 h (small intestines, 4 h p.i., n = 4, read-out: Sm. Intestines uptake): 3.98 ± 0.54 %ID/g | tissue uptake at 24 h (small intestines, 24 h p.i., n = 4, read-out: Sm. Intestines uptake): 2.85 ± 0.31 %ID/g | tissue uptake at 48 h (small intestines, 48 h p.i., n = 6, read-out: Sm. Intestines uptake): 1.5 ± 0.23 %ID/g | tissue uptake at 4 h (spleen, 4 h p.i., n = 4, read-out: Spleen uptake): 0.19 ± 0.02 %ID/g | tissue uptake at 24 h (spleen, 24 h p.i., n = 4, read-out: Spleen uptake): 0.52 ± 0.09 %ID/g | tissue uptake at 48 h (spleen, 48 h p.i., n = 6, read-out: Spleen uptake): 0.43 ± 0.08 %ID/g | tissue uptake at 4 h (stomach, 4 h p.i., n = 4, read-out: Stomach uptake): 8.73 ± 0.66 %ID/g | tissue uptake at 24 h (stomach, 24 h p.i., n = 4, read-out: Stomach uptake): 5.94 ± 0.9 %ID/g | tissue uptake at 48 h (stomach, 48 h p.i., n = 6, read-out: Stomach uptake): 2.78 ± 0.79 %ID/g | excreta dose per gram or mL at 4 h (urine, 4 h p.i., n = 4): 15.3 ± 1.2 %ID/g | excreta dose per gram or mL at 24 h (urine, 24 h p.i., n = 4): 4.81 ± 0.84 %ID/g | excreta dose per gram or mL at 48 h (urine, 48 h p.i., n = 5): 2.04 ± 0.97 %ID/g
